Paper PMC3367199
Like-named read-outs stand apart in the source and are kept apart here.

Columns and labels:
Test in all cases: EMSA
rCRR22 [1] = target: T1, rCRR22 (UniProt Q3E6Q1 47-809)
T1 sequence: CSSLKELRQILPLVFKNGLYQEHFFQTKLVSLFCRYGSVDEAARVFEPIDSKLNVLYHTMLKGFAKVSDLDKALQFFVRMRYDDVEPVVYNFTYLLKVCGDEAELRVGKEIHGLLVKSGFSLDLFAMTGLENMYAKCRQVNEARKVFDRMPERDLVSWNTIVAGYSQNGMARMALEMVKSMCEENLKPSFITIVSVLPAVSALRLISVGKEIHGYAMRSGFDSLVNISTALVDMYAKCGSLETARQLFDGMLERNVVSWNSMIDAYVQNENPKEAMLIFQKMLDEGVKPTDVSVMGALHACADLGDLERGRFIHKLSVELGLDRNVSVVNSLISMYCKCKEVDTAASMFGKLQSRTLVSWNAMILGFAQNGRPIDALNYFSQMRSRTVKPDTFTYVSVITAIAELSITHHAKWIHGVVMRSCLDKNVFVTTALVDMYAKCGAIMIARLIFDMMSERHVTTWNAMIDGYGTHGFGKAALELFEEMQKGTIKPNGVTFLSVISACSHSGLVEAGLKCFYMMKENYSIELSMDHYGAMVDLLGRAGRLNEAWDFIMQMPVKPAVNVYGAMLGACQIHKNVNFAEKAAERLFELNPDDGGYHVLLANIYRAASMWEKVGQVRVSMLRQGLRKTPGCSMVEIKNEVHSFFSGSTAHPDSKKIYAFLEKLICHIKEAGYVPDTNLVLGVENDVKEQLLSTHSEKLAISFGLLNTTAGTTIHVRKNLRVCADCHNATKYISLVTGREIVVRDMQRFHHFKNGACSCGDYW

rOTP82 [2] = target: T2, rOTP82 (UniProt Q9LN01 41-741)
T2 sequence (Q9LN01 41-741): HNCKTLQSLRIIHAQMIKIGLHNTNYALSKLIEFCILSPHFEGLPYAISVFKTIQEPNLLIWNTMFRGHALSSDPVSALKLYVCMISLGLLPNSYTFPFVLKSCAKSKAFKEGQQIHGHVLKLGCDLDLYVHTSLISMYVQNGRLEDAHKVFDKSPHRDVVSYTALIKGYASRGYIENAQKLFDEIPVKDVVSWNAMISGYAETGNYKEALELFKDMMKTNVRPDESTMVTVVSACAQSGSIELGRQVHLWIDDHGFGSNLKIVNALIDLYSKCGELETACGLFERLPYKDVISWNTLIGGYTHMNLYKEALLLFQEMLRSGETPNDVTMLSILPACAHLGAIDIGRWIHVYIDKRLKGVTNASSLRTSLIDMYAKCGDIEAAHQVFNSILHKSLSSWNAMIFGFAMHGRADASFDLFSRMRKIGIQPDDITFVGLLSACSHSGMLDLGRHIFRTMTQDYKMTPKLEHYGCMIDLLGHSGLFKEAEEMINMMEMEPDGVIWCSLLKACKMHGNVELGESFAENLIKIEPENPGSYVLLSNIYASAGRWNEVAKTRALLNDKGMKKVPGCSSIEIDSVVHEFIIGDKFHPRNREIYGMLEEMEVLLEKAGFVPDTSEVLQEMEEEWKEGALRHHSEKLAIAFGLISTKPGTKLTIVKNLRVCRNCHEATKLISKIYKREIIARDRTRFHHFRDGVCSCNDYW

rCRR22 [3] = target: T1, rCRR22; remark: listed apart in the source
rOTP82 [4] = target: T2, rOTP82; remark: listed apart in the source

Binder: GCUUUCCCUAGCCCCUUC (ssRNA) [ndhB7S2]
- Kd (rCRR22 [1]): 70 nM

B1: ndhD5L (ssRNA)
RNA: GUCGGUACAAUCCAAAUAAUUUAUGCAGCUUCAACAUCUCCCGGUCAACGU
- binding result (rCRR22 [1]): binds

B2: ndhB7L (ssRNA)
RNA: AUCACUGUAGGAAUUGGGUUCAAGCUUUCCCUAGCCCCUUCUCAUCAAUGG
- binding result (rCRR22 [1]): binds

Binder: GACCUGGUGUAUCUUGUCUUUACCACGAAUGAUUUU (ssRNA) [ndhD1]
- binding result (rOTP82 [2]): no binding
- binding result (rCRR22 [3]): no binding

Binder: UUAUGCAGCUUCAACAUCUCC (ssRNA) [ndhD5S]
- Kd (rCRR22 [1]): 10.8 nM

Binder: GCAAUGUACAGCGGUCAAAUAGGAUCAUUUUCUUCU (ssRNA) [ndhD2]
- binding result (rOTP82 [2]): no binding

Binder: UAACUGUCCUAGCUCUACCG (ssRNA) [ycf1]
- binding result (rCRR22 [3]): no binding

Binder: CAAGCUUUCCCUAGCCCCUUC (ssRNA) [ndhB7S]
- Kd (rCRR22 [1]): 9.2 nM

Binder: UAGUUUUUCUGGGAUC (ssRNA) [ndhG1S]
- Kd (rOTP82 [4]): 12.2 nM

B3: ndhB9L (ssRNA)
RNA: GCUUUUCUUUCUGUUACUUCGAAAGUAGCUGCUUCAGCUUCAGCCACUCGA
- binding result (rOTP82 [4]): binds

Binder: UGCAGCUUCAACAUCUCC (ssRNA) [ndhD5S2]
- Kd (rCRR22 [1]): 96.2 nM

B4: ndhG1L (ssRNA)
RNA: CCUGGACCAAUACAUGAUUUUCUUUUAGUUUUUCUGGGAUCCGGUCUUCUA
- binding result (rOTP82 [4]): binds

Binder: UAGCUGCUUCAGCUUC (ssRNA) [ndhB9S]
- Kd (rOTP82 [4]): 9.7 nM

Binder: AAUUCGUGUAUAUAUUUC (ssRNA) [rpoB3S2]
- Kd (rCRR22 [1]): 18.9 ± 3.1 nM

Binder: AAUAAUUCGUGUAUAUAUUUC (ssRNA) [rpoB3S]
- Kd (rCRR22 [1]): 13.5 ± 2.5 nM

B5: rpoB3L (ssRNA)
RNA: GGUUCAAGUUAUAACCCAGAAAUAAUUCGUGUAUAUAUUUCACAGAAACGU
- binding result (rCRR22 [1]): binds

Binder: UUUUUCUGGGAUC (ssRNA) [ndhG1S2]
- Kd (rOTP82 [4]): 167 nM

Binder: CUGCUUCAGCUUC (ssRNA) [ndhB9S2]
- Kd (rOTP82 [4]): 119 nM
